Here are results for two molecules from paper PMC6393308.

Broadly, the Kd is the constant that tells how readily two partners part at equilibrium. A low value points to a tighter complex.

One series deals with T1, HpSoj K230E (Helicobacter pylori 26695, UniProt O25759 1-264, K230E).
T1 sequence: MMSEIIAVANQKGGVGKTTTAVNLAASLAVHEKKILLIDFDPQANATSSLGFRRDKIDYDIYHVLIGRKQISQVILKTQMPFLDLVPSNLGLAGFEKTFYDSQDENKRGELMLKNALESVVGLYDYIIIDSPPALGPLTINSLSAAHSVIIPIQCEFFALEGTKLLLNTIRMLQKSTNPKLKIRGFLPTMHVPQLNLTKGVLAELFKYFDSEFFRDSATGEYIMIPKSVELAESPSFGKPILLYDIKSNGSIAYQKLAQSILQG
In words: fluorescence polarization. A general note: In fluorescence polarisation assays a small probe gives low polarisation when free and higher when bound to something large.

The target in another series is T2, HpSoj K199E (Helicobacter pylori 26695, UniProt O25759 1-264, K199E).
T2 sequence: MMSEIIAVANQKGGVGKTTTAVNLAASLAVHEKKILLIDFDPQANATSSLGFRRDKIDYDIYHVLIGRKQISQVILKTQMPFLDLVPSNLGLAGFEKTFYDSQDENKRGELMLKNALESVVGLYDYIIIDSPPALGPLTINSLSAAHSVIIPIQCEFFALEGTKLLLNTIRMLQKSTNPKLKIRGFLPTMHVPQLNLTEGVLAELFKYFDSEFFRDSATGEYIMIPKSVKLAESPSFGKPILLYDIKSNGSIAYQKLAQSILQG
The series can be described thus: fluorescence polarization.

For series [1], the target named is T3, HpSoj (Helicobacter pylori 26695, UniProt O25759 1-264).
T3 sequence: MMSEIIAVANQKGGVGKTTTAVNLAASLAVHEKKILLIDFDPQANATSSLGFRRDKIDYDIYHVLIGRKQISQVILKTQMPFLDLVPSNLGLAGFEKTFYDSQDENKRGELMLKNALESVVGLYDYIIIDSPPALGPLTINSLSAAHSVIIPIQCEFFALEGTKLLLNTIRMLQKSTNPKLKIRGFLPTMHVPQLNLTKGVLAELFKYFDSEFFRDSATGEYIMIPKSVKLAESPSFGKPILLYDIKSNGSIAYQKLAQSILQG
The series can be described thus: fluorescence polarization.

Another series has as its target T4, HpSoj K199/230E (Helicobacter pylori 26695, UniProt O25759 1-264, K199E;K230E).
T4 sequence: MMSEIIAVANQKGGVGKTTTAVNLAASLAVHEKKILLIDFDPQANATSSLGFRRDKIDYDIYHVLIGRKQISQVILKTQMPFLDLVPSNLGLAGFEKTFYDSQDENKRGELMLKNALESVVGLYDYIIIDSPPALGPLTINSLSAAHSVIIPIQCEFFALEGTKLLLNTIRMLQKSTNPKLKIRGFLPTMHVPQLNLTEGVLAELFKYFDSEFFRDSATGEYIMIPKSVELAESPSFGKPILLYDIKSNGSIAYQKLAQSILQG
The series can be described thus: fluorescence polarization.

The target in a further series is T5, HpSoj K199/227/230/247E (Helicobacter pylori 26695, UniProt O25759 1-264, K199E;K227E;K230E;K247E).
T5 sequence: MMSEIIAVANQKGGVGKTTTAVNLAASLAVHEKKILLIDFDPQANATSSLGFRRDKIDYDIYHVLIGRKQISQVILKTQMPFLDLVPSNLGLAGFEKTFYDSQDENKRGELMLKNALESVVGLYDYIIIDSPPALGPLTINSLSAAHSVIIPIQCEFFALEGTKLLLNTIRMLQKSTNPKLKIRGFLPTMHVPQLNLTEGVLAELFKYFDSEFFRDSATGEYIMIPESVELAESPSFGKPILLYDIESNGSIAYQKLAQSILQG
In words: fluorescence polarization.

Series [2] has as its target T3, HpSoj. The series can be described thus: EMSA. On the technique in general: Mobility shift assays separate free from complexed probe on a gel.

B1: parS24 Cy3 (dsDNA)
DNA 1: AGGGTGTTCCACGTGAAACAGGGA
DNA 2: TCCCTGTTTCACGTGGAACACCCT
Regarding B1, the Kd with HpSoj K230E was found to be 187 ± 36 nM; with HpSoj K199E, 215 ± 24 nM; with HpSoj [1] it was 122 ± 14 nM; with HpSoj K199/230E it was 308 ± 40 nM. Besides, the binding result with HpSoj K199/227/230/247E is recorded as “no binding”.

B2: parS55 (dsDNA)
DNA 1: CTGAATCAGCAGTTGAATCAGAATGTTCCACGTGAAACAAAGAAAAAAGAACCTG
DNA 2: CAGGTTCTTTTTTCTTTGTTTCACGTGGAACATTCTGATTCAACTGCTGATTCAG
As to B2, in the series with HpSoj [2], the binding result is on record as “binds”.
